We go through one substance from paper PMC5727057.

Experiment [1] deals with GmSKRP1 (protein used for isothermal titration calorimetry) (soybean). Briefly: ITC; 40 μM GmSKRP1 in the cell titrated with 400 μM PsAvr3c from the syringe; 25 °C; 20 mM HEPES pH 7.5, 200 mM NaCl; one-site binding model; three independent experiments. In general terms: In ITC the heat of successive injections is recorded.
Experiment [2] has the same target. The experiment is described as above. The source holds these as a separate data set.

“And” between values parts separate entries of the source, which are not always exact repeats. Identical values can stand only once. Like-named read-outs stand apart in the source and are kept apart here.

A word on the Kd: it is the concentration at which binding is half-saturated. Regarding “PsAvr3c (protein used for isothermal titration calorimetry) (natural protein)”, the Kd in experiment [1] was 3.35 µM; in experiment [2], 3.38 µM and 3.52 µM and 3.14 µM.
